Data set [1] addresses T1, I-SceI homing endonuclease (UniProt P03882 P03882:1-235).
T1 sequence: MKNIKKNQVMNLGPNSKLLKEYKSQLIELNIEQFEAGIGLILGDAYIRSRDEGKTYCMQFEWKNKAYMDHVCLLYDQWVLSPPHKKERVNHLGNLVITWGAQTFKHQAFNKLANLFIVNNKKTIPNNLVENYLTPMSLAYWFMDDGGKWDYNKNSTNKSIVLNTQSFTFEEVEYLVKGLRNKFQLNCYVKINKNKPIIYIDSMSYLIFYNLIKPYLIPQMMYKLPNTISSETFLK
As to the kind of experiment: capillary electrophoresis with LIF; binding affinity about 52.49 uM; binding also seen by EMSA. The settings on record: tags: provided by F. Gimble (Purdue University), dialyzed; label: FAM. The procedure: (§1) The protocol for SELEX using capillary electrophoresis (CE) was essentially as described earlier (Berezovski, et al., Nat. Protoc., 1:1359-1369 (2006)), but with a few modifications. Initial calibrations were done with a serial dilution of the aptamer library in RB1. The free DNA run time with 100 nM of the library was determined (FIG. 8A). […] CE was done using a Beckman Coulter (Atlanta, Ga., USA) P/ACE MDQ with laser-induced fluorescence (LIF) detection. The LIF was composed of a 488-nm air-cooled argon ion laser along with an on-board detector. CE runs were carried out with a voltage of 10 kV. The first round of selection began after determination of the collection window based on the bulk affinity analysis. For the initial round of in vitro selection, the DNA library (5 μl at 200 μM) was mixed with 5 μl of selection buffer 3 (SB3) (100 mM Tris-HCl at pH 8.2, 200 mM NaCl and 10 mM MgCl₂) for a final concentration of 100 μM DNA library, 50 mM Tris-HCl at pH 8.2, 100 mM NaCl and 5 mM MgCl₂. This mixture was heated in the BioRad iCycler™ to 94° C. for 1 min, and then cooled to 20° C. at a rate of 0.5° C./s. After the folding of the DNA library, 5 μl of 200 nM I-SceI dissolved in selection buffer 1 (SB1) (50 mM Tris-HCl at pH 8.2, 100 mM NaCl and 5 mM MgCl₂) was added to 5 μl of the DNA-SB3 mixture to make the final volume to 10 μl. […]

Data set [2] has as its target T2, I-SceI homing endonuclease (expressed in yeast from GAL1-10 promoter) (UniProt P03882 P03882:1-235).
T2 sequence: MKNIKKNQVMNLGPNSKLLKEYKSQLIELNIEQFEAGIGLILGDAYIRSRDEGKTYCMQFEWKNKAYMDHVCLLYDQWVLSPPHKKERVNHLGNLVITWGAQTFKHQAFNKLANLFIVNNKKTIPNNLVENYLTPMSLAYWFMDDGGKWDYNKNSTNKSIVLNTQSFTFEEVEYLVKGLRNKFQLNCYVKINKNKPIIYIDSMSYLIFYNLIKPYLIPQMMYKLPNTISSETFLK
Briefly: cell_activity; gene correction over non-binding C.TRP5.54 (62500 vs 8950 per 1e7 cells); galactose. The following applies: aptamer hairpin at 5' end (predicted). The procedure: (§2) For this experiment, I-SceI was induced 3 h by addition of galactose (final concentration 2%) to the liquid YPLac medium before transformation by oligonucleotides, and cells were plated on selective media containing glucose. Viability after transformation was calculated by plating to glucose-containing synthetic complete medium. Viability after transformation for the I-SceI-containing strains was typically 20-40% both on glucose and galactose. […] The frequency of gene correction is based on the number of transformants relative to 10⁷ viable cells that formed a colony on galactose-containing synthetic complete medium (or glucose-containing synthetic complete medium depending on the transformation experiment). Yeast cell culture and standard molecular biology techniques were used as previously described
Therefore, we removed the primer regions surrounding the I-Sce I aptamer sequence in the bifunctional oligonucleotides, and this also allowed us to extend the sequence length of the gene-correction donor part of the bifunctional molecule. Oligonucleotides that contained the aptamer sequences from A4 or A7 at the 5′ end of a DNA sequence containing 54 bases of homology to restore the disrupted trp5 gene (A4.TRP5.54 and A7.TRP5.54, Table 1) were tested in yeast strains FRO-155/156 and FRO-526/527 (T5B and T5 in FIG. 1) for their capacity to restore the functionality of the trp5 gene. […]

The target of data set [3] is T2, I-SceI homing endonuclease (expressed …). Briefly: cell_activity; gene correction over C.ADE2.54; BY4742 and 55R5-3C. The procedure:
as §2, with “Sequences of oligonucleotides used for repair can be found in Table 1. Cells from each transformation were diluted appropriately and plated to synthetic complete medium lacking the respective amino acid and containing 2% galactose for I-SceI induction, 2 or 0.2% galactose for HO induction or 2% glucose for I-SceI or HO repression. The exception to this is the experiment to determine the position of the aptamer in the targeting DNA sequence (at the 5′ or 3′ end). For” for “For”, “described […]” for “described”

The target is the same in data set [4]. As to the kind of experiment: cell_activity; gene correction over C.LEU2.54; BY4742 and 55R5-3C. The procedure: as §2, with “Sequences of oligonucleotides used for repair can be found in Table 1. Cells from each transformation were diluted appropriately and plated to synthetic complete medium lacking the respective amino acid and containing 2% galactose for I-SceI induction, 2 or 0.2% galactose for HO induction or 2% glucose for I-SceI or HO repression. The exception to this is the experiment to determine the position of the aptamer in the targeting DNA sequence (at the 5′ or 3′ end). For” for “For”, “described […]” for “described”

The target is the same in data set [5]. Briefly: cell_activity; gene correction over C.TRP1.54; 55R5-3C. As to the method: as §2, with “Sequences of oligonucleotides used for repair can be found in Table 1. Cells from each transformation were diluted appropriately and plated to synthetic complete medium lacking the respective amino acid and containing 2% galactose for I-SceI induction, 2 or 0.2% galactose for HO induction or 2% glucose for I-SceI or HO repression. The exception to this is the experiment to determine the position of the aptamer in the targeting DNA sequence (at the 5′ or 3′ end). For” for “For”, “described […]” for “described”

The target of data set [6] is T1, I-SceI homing endonuclease. As to the kind of experiment: EMSA; negative control; described as non-binding random control; 3 uM I-SceI, Mg2+, Zn2+, gel result not shown. The following applies: tags: provided by F. Gimble (Purdue University), dialyzed; label: 5' 32P. The procedure: The internal region was chosen using a random DNA sequence generator with a specified GC content of 50% (http://www.faculty.ucr.edu/˜mmaduro/random.htm). I-SceI was dialyzed before running the EMSA gels in Run Buffer 1 (RB1), 50 mM Tris-HCl at pH 8.2, as previously described. Bovine serum albumin (BSA) was purchased as a lyophilized powder through Sigma-Aldrich (St. Louis, Mo.) and was greater than 98% pure. BSA stock of 10 mg/ml was made in RB1 buffer.
The buffer conditions used for binding had several components described previously (22). Each reaction consisted of 2 μL 5×EMSA buffer 1 (100 mM Tris-HCl at pH 8.5, 250 mM NaCl, 10 μM ZnCl₂, 10 mM MgCl₂, 10% glycerol), 1 μL BSA (10 mg/ml), 1 μL freshly prepared 20 mM DTT, and 1 μL 100 mM MgCl₂ for a final buffer concentration of 20 mM Tris-HCl, 50 mM NaCl, 2 μM ZnCl₂, […], 1 mg/ml BSA, […], and 2% glycerol. After mixing these components together, 2 μL of dialyzed I-SceI (total of 3 μM) for each reaction was added, bringing the volume to […]. The radiolabeling of the oligonucleotides had varying efficiencies such that the counts per minute (cpm) measurement of the radioactivity for each labeled oligonucleotide was different. […] The radioactivity in the gel was analyzed by Phosphor Imager (Molecular Dynamics—Typhoon Trio Imager™, GE Healthcare Life Sciences, Pittsburgh, Pa.). […]
(In general: A gel shift assay detects complexes by their altered migration in electrophoresis.)

Data set [7] concerns the target T2, I-SceI homing endonuclease (expressed …). Briefly: cell_activity; gene correction over C.TRP5.40 (202 vs 13.9); 32-fold with PAGE-purified oligos.
Data set [8] deals with T1, I-SceI homing endonuclease. As to the kind of experiment: capillary electrophoresis with LIF; binding affinity about 3.16 uM; 50 nM A7, 1 uM I-SceI (FIG. 9D); binding also seen by EMSA. The following applies: tags: provided by F. Gimble (Purdue University), dialyzed; label: 5' FAM; hairpin with 4-nt loop (mfold prediction). The procedure: as §1

What is called Kd is the constant that tells how readily two partners part at equilibrium. TGAAGGCCAAAACGGCTGAATCGATAGT (ssDNA) [A4] came in with a Kd in data set [1] of 52.5 µM.

B1: A7.TRP5.54 (ssDNA)
DNA: GCGGGCGCTGTTGACAGCGGTCAGGTGGATGGGATGGGAAAAGGGTTTTGATGAAGCTGTCGCGGATCCCACATTCTGGGAAGACTTCAA
With B1, in data set [2], the activity is 7 fold.

B2: A7.ADE2.54 (ssDNA)
DNA: GCGGGCGCTGTTGACAGCGGTCAGGTGGATGGGATGGGACATTATACCATTGATGCTTGCGTCACTTCTCAATTTGAAGCTCATTTGAGA
B2 registered an activity in data set [3] of 3 fold.

B3: A7.LEU2.54 (ssDNA)
DNA: GCGGGCGCTGTTGACAGCGGTCAGGTGGATGGGATGCGCTTTCATGGCCCTACAACATGAGCCACCATTGCCTATTTGGTCCTTGGATAA
In data set [4], B3 came in with an activity of 2 fold.

B4: A7.TRP1.54 (ssDNA)
DNA: GCGGGCGCTGTTGACAGCGGTCAGGTGGATGGGATGGTGGCAAGAATACCAAGAGTTCCTCGGTTTGCCAGTTATTAAAAGACTCGTATT
B4 displayed an activity in data set [5] of 2.5 fold.

B5: P1-r-P2 (ssDNA)
DNA: CTTCTGCCCGCCTCCTTCCGGTCGGGCACACCTGTCATACCCAATCTCGAGGCCAGACGAGATAGGCGGACACT
Take B5: the binding result in data set [6] is recorded as “no binding”.

B6: A7.TRP5.40 (ssDNA)
DNA: GCGGGCGCTGTTGACAGCGGTCAGGTGGATGGGATGGGTTTTGATGAAGCTGTCGCGGATCCCACATTCTGGGAAG
Molecule B6 displayed an activity in data set [7] of 15 fold.
On to GCGGGCGCTGTTGACAGCGGTCAGGTGGATGGGATG (ssDNA) [A7], for which, in data set [8], the Kd was 3.16 µM.
